From patent US20220054617A1 (REGENTS OF THE UNIVERSITY OF MINNESOTA, published 2022)

B1: DENV-3 antigen (other)
chain: SNALKGMSYAMCTNTFVLKKEVSETQHGTILIKVEYKGEDAPCKIPFSTEDGQGKAHNGRLITANPVVTKKEEPVNIEAEPPFGESNIVIGIGDNALKINWYKK
B2: DENV-4 antigen (other)
chain: SNAIKGMSYTMCSGKFSIDKEMAETQHGTTVVKVKYEGTGAPCKVPIEIRDVNKEKVVGRIISSTPFAENTNSVTNIELEPPFGDSYIVIGVGDSALTLHWFR
B3: DENV-1 antigen (other)
chain: SNALKGVSYVMCTGSFKLEKEVAETQHGTVLVQVKYEGTDAPCKIPISTQDEKGVTQNGRLITANPIVTDKEKPVNIETEPPFGESYIVIGAGEKALKLSWFK
notes: also called DENV-1 Ag

Columns and labels:
Test in all cases: size exclusion chromatography of the tetravalent antigen mixture without adjuvant
[1] = molecular target: DENV-2 antigen (dengue virus serotype 2 (DENV-2), UniProt P14337 573-674)
[2] = molecular target: B1
[3] = molecular target: B2

Binder	binding result [1]	binding result [2]	binding result [3]
B1	no binding		
B2	no binding	no binding	
B3	no binding	no binding	no binding
